The results in this text go back to patent WO2001096599A2.

This assay concerns the target recombinant ED-B protein (UniProt P02751). Put plainly: I-125 labelled antibody on a small column of ED-B sepharose, elution with TEA pH 11.
Sequence of UniProt P02751 (P02751 1266-1356 limits assumed): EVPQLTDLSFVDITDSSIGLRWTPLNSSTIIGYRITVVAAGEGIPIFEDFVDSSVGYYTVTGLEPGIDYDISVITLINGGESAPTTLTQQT

On to “L19, human recombinant antibody directed against the Extra Domain B”, for which the immuno-reactivity (% of labeled material that bound to the ED-B sepharose column and was eluted) was 85 to 95%.
